Ends that are not written are not given here. * marks the point of attachment. Biotin = O=C1N[C@H]2[C@H](CS[C@H]2CCCCC(=O)*)N1
Key:
[1] = molecular target: T1, purified EpCAM (extracellular domain with myc and His tags at the C terminus, expressed in HEK-293T cells) (UniProt P16422 24-265, limits assumed); test: titer of phages bound to EpCAM-immobilized beads (TALON beads; Protein G beads with Vu-1D9), both conditions
T1 construct: extracellular domain; also called epithelial cell adhesion molecule; CD326
T1 sequence (looked up): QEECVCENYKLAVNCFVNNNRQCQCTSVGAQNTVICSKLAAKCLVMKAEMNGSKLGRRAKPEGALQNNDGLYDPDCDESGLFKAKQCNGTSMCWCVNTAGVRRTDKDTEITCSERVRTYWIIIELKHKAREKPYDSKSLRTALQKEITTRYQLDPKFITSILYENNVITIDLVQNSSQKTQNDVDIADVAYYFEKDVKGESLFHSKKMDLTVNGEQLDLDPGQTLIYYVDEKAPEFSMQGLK
Protocol: (§1) Under Condition 1, each phage (in FIG. 1C, rows 1 and 2 represent the Ep133-displaying phage, rows 3 and 4 represent the Ep301-displaying phage, and rows 5 and 6 represent the phage 447 displaying no peptide) was added at a titer of 1×10¹⁰ to 0.4 mg of TALON® beads immobilized 1 μg of EpCAM (FIG. 1C, rows 1, 3, and 5,indicating with plus sign) or the beads alone (FIG. 1C, rows 2, 4, and 6, indicating with minus sign). After washing with TBST five times, the titers of bound phages were measured.
as §1, with “2, 2.4 μg of anti-EpCAM monoclonal antibody (Vu-1D9, Abcam plc.) was immobilized on Protein G beads, and 3 μg of purified EpCAM was immobilized thereon via the antibody. Each” for “1, each”, “the” for “0.4 mg of TALON®”, “immobilized” for “immobilized 1 μg of”, “5, indicating” for “5,indicating with”, “once,” for “five times,”

[2] = molecular target: T2, EpCAM, whole protein on cells (HT-29, MCF-7, 293T transfected with full-length EpCAM plasmid pkk196) or on … (UniProt P16422 24-314, limits assumed); test: staining of HT-29 spheroids with FITC peptide, fluorescence microscopy
T2 construct: whole, on cells; Used for both cell-surface EpCAM and EpCAM carried on HT-29 exosomes; the assay field says which; also called EpCAM on HT-29; EpCAM-expressing cells
T2 sequence (looked up): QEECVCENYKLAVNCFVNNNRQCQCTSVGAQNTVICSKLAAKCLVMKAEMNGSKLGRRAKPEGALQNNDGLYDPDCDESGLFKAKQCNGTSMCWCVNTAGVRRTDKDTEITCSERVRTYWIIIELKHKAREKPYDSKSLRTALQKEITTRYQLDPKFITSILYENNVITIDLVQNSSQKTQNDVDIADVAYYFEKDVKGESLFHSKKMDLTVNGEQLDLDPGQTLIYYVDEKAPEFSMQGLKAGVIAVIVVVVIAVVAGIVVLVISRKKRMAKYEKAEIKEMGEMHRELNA
Protocol: (§2) The HT-29 cells as EpCAM-expressing cells were cultured by spheroid culture method as follows: 4×10⁵ cells are suspended in 3 ml of D-MEM/F-12 medium (Dulbecco's Modified n Eagle Medium:Nutrient Mixture 12, 1:1 mixture) (Gibco/Life Technologies Inc.) supplemented with 20 ng/ml human EGF (Miltenyi Biotec K.K.), 20 ng/ml human […] (Miltenyi Biotec K.K.), B-27 (Gibco/Life Technologies Inc.), penicillin, and streptomycin and inoculated to EZ-Sphere®, a Petri dish of 3.5 cm in diameter coated with MPC polymer. After static culture for 72 hours, the cells were collected while the medium was suspended by pipetting. The cells were stained with the FITC-modified peptide and observed under a fluorescence microscope. The staining was carried out by adding 4 μM peptide into a McCoy's 5A medium and standing still at room temperature for 30 minutes.
When these control peptides were used at a concentration of 4 μM, no EpCAM staining was observed (data not shown).

[3] = molecular target: T1, purified EpCAM (extracellular domain …); test: fluorescence depolarization, FITC-modified peptide
Protocol: Each FITC-modified EpCAM peptide or control peptide was suspended at a concentration of approximately 100 μM in PBS. After centrifugation, the supernatant was collected and diluted 10-fold, and the absorbance was measured at 495 nm From the measurement value, the molar concentration of the peptide was determined using the formula of Beer-Lambert of the following expression 1: […]
EpCAM is diluted with PBS into several concentrations from 0 until reaching equilibrium (40 nM for the Ep133 peptide), and the FITC-modified peptide whose precise concentration has been measured by the aforementioned method is added to the dilutions thus prepared. The sample was left at a temperature for measurement for 30 minutes or longer and subjected to polarization measurement using a spectrofluorometer FP-6500 (JASCO Corp.) equipped with an automatic polarization measurement unit (JASCO Corp., APH-103). Kd was estimated by curve fitting according to the Hill equation.
The dissociation constants of the EpCAM-binding peptide Ep301 (FIG. 2(D)) disclosed in Patent Literature 2 and Ep301 control (FIG. 2(E)), which was a control peptide derived from Ep301 by the substitution of cysteine at positions 5 and 10 by serine, and a sequence of EpCAM from residue 106 to 119 (FIG. 2(F)) having partial homology to EpCAM-binding peptides were measured similarly.

[4] = molecular target: T2, EpCAM, whole protein on cells (HT-29, …); test: staining of HT-29 spheroids with FITC peptide
Protocol: as §2
Next, the results of staining using the L3A variant peptide as a control are shown.

[5] = molecular target: T1, purified EpCAM (extracellular domain …); test: pull-down of EpCAM on peptide-loaded streptavidin magnetic beads, Western blot
[6] = molecular target: T2, EpCAM, whole protein on cells (HT-29, …); test: pull-down of HT-29 exosomes on peptide-loaded streptavidin beads, Western blot with anti-EpCAM
Protocol: 250 μg of streptavidin-magnetic beads (Dynabeads® M-280 streptavidin, VERITAS Corp.) in TBS containing 2% BSA was added to 20 μg of the biotinylated Ep114 peptide and shaken at room temperature for 30 minutes, followed by washing with TBS. Beads reacted without the peptide were used as a control. The anti-Ep114 antibody was added to the beads in TBST and reacted at room temperature for 1 hour. After washing with TBS, the beads were collected. The collected beads were heated at 95° C. for 5 minutes in a SDS sample buffer. After Western-blotting, the anti-Ep114 antibody was detected using HRP-labeled anti-rabbit antibodies.
The binding to exosomes was confirmed using the Western blot system in the similar method as in the preceding paragraph 1. Specifically, 20 μg of the biotinylated Ep114 peptide, the PE183 peptide, the PE184 peptide, or the PE185 peptide was bound to 250 μg of streptavidin-magnetic beads and then reacted with exosomes isolated from HT-29 cells as EpCAM-positive cells, followed by Western blot to detect the exosomes using anti-EpCAM polyclonal antibodies (see the left panel of FIG. 5C).

[7] = molecular target: T1, purified EpCAM (extracellular domain …); test: ELISA, biotin peptide on streptavidin plate, purified EpCAM added
Protocol: was immobilized onto an ELISA plate via streptavidin, and purified EpCAM was added thereto in an amount of 0, 10, or 100 ng and reacted. After washing, bound EpCAM was detected using the anti-EpCAM antibody. A biotin-modified peptide PE194 (Ac-[…](biotin)-NH2) of the L3A variant (non-EpCAM-binding variant) was used as a control.

B1: Ep133-displaying phage (peptide)
chain: EHLHCLGSLCWP
modifications: not fully specified (bridges); cysteine pairing not given here; also: displayed on phage
notes: also called cloned phage displaying Ep133; not shown: fusion and linker not described
With B1 the “fold ability to bind compared with Ep301-displaying phage” value [1] was ≥ 10 times.

B2: Ep133 control (peptide)
peptide: EHLHSLGSLSWP
modifications: also: FITC-modified, position not given here
notes: Ep133 with cysteine at positions 5 and 10 substituted by serine
B2: no binding (tested: 0.4 µM; also 4 µM (data not shown)) [2]; no binding [3].

B3: L3A variant peptide of Ep114, FITC-labeled (peptide)
peptide: KHAQCVRNICWS
modifications: not fully specified (bridges); cysteine pairing not given here; also: FITC-labeled, position not given here
notes: Free labeled peptide used as a control in cell staining; also called L3A control labeled peptide; control peptide
B3: no binding [4].

B4: PE183 peptide (peptide)
peptide: Ac-KHLQCVRNICWSPPPPPPKK(Biotin)-NH2
modifications: not fully specified (bridges); printed as Ac-KHLQCVRNICWSPPPPPPKK(biotin)-NH2; cysteine pairing not given here
B4: binds [5]; binds [6].

Ac-KHAQCVRNICWSPPPPPPKK(Biotin)-NH2 (cysteine pairing not given here, L3A control of PE183) [biotin-modified peptide PE194 of the L3A variant]: no binding (tested: 100 ng EpCAM) [7].

KHLQSVRNISWS (also: FITC-labeled, position not given here) [Ep114 control peptide in which cysteine at positions 5 and 10 is substituted by serine]: no binding (tested: 0.4 µM; also 4 µM (data not shown)) [2].

From patent publication US20150246945A1 (JAPANESE FOUNDATION FOR CANCER RESEARCH, published 2015)
